From patent US8637043B2, “Compositions useful as ligands for the formyl peptide receptor like 1 receptor and methods of use thereof” (Chemocentryx, Inc., priority 2001, dated 2014)
Where “and” joins values, the source holds several entries; their conditions need not be identical. Equal values may be shown once.

What was measured:
dendritic cells = experiment: Dendritic cell infiltration after intradermal injection in mice (anti-DEC-205 staining); assay type: in vivo; parameters: key to Dendritic cell infiltration Score / Infiltration Score: 0 = none, 1 = slight, 2 = mild, 3 = moderate, 4 = severe
Source text: The following chemokines were obtained from R&D Systems (Minneapolis, Minn.): vMCK-2, mC10, and GM-CSF. The following peptides were synthesized at Phoenix Pharmaceuticals (San Carlos, Calif.): SHAAYtide (SEQ ID NO:6), several […] MODIFIED peptides of SHAAGtide variant (SEQ ID NO:) (i.e. cyclized using the MPR-Cys linked cyclization), control peptide (SEQ ID NO:33, […]Gin Pro Gly lie Lys Arg Arg Trp Leu Met), randomly conjugated to OVA in either a 1:1 or 1:4 ratio (by MBS coupling method), and conjugated to OVA at the C-terminus (C-term, made by the addition of a cysteine), and SHAAGtide variant (SEQ ID NO:3). In three separate experiments, chemokines or peptides (2 μg or 20 μg in PBS) were injected intradermally into BALB/c or C57BI/6 mice (Jackson Laboratory; Bar Harbor, Me.). In each experiment, one mouse received an injection of PBS only as a negative control. At various times after injection, the mice were euthanized, and the area around the injection site was excised and subjected to immunohistology. Frozen sections were stained with anti-DEC-205 antibody (Bio-Whittaker Molecular Applications; Rockland, Me.) that recognizes a dendritic cell-specific molecule (Kraal et al., 1986). A relative staining number on a scale of […] was assigned to each section (0, none; 1, slight; 2, mild; 3, moderate; 4, severe).

mononuclear cells = experiment: Mononuclear cell infiltration into the dermis after intradermal injection; assay type: in vivo, Rhesus macaques
Protocol: Different amounts (8, 20, or 60 μg in 100 μl PBS) of different polypeptides (see Table 18) were injected intradermally in Rhesus macaques under anesthesia. Twenty-four and 48 hours later, 6 mm skin punch biopsies were taken using aseptic technique and then bisected. One portion of the biopsy was embedded in OCT compound, flash frozen in liquid nitrogen and stored at −70° C. The other portion was immersed in formalin and embedded in paraffin wax; subsequently, sections cut on a microtome were stained with hematoxylin and eosin and then microscopically examined for cell infiltration into the dermis (Table 18). As a negative control, monkeys were injected with PBS lacking any polypeptides.
Mononuclear cell infiltration was scored on a scale of 0 to 5:0, very mild perivascular mononuclear inflammatory infiltration throughout the dermis; 1, a mild perivascular mononuclear inflammatory infiltrate seen throughout the dermis; 2, a mild/moderate perivascular mononuclear inflammatory infiltrate seen throughout the dermis; 3, a moderate perivascular mononuclear inflammatory infiltrate seen throughout the dermis; 4, an extensive perivascular mononuclear inflammatory infiltrate seen throughout the dermis; 5, a florid perivascular mononuclear inflammatory infiltrate seen throughout the dermis. intermediate scores are indicates, e.g., “⅔” represents a score between 2 and 3.

infiltrating cells = experiment: Immunohistochemistry of infiltrating cells in injected skin samples; assay type: in vivo, Rhesus macaques; details: injected skin samples of Example 14
Protocol: To better define the identity of the infiltrating cells seen in Example 14 (Table 18), the same samples were analyzed by immunohistochemistry using antibodies specific for different cell types. These antibodies included: CD68 (expressed on macrophages, neutrophils and dendritic cells), MHC II (antigen-presenting cells, e.g. macrophages and dendritic cells), HAM-56 (macrophages), fascin (dendritic cells, endothelial cells and epithelial cells), elastase (neutrophils), cytokeratin (epithelial cells), CD3 (T cells), CD20 (B cells), and CD1a (Langerhans cells).

B1: mC10: chemokine obtained from R&D Systems (protein, UniProt P27784 22-116, looked up)
C-C motif chemokine 6: GLIQEMEKEDRRYNPPIIHQGFQDTSSDCCFSYATQIPCKRFIYYFPTSGGCIKPGIIFISRRGTQVCADPSDRRVQRCLSTLKQGPRSGNKVIA
With B1 the “Dendritic cell infiltration Score” value (dendritic cells; BALBc mice, 2 μg, 6 hours) was 2, the “Dendritic cell infiltration Score” value (dendritic cells; BALBc mice, 2 μg, 30 hours) was 3 and 2 and the “Dendritic cell infiltration Score” value (dendritic cells; BALBc mice, 20 μg, 6 hours) was 2. For the same molecule, the “Dendritic cell infiltration Score” value (dendritic cells; C57B1/6 mice, 2 μg dose, 6 hours, 0 none, 1 slight, 2 mild, 3 moderate, 4 severe, one animal per line) was 1 (2×) and 2, the “Dendritic cell infiltration Score” value (dendritic cells; C57B1/6 mice, 2 μg dose, 30 hours) was 2 and 1 and the “Dendritic cell infiltration Score” value (dendritic cells; C57B1/6 mice, 2 μg dose, 51 hours) was 0. For the same molecule, the “infiltration of DEC-205-labeled cells” value (dendritic cells; summary of Tables 15, 16 and 17) was “excellent infiltration”, the “Mononuclear cell infiltration score” value (mononuclear cells; 8 μg, 24 hours) was 1 and the “Mononuclear cell infiltration score” value (mononuclear cells; 8 μg, 48 hours) was 0. The “Mononuclear cell infiltration score” value (mononuclear cells; 20 μg, 24 hours) was 0, the “Mononuclear cell infiltration score” value (mononuclear cells; 20 μg, 48 hours) was 0 and the “Mononuclear cell infiltration score” value (mononuclear cells; 60 μg intradermally, 24 hours, scale 0 (very mild) to 5 (florid)) was 0. For the same molecule, the “Mononuclear cell infiltration score” value (mononuclear cells; 60 μg, 48 hours) was 0, the “cell infiltration, in words” value (mononuclear cells; summary of Table 18) was “little to no infiltration” and the “identity of infiltrating cells” value (infiltrating cells) was “primarily antigen-presenting cells, including macrophages and dendritic cells, but few neutrophils”.
